Test results as given in article PMC12383448.

How the values were obtained:
[1] = target: His8 (UniProt position 193, ACLSCHQQIHR); assay: NMR
[2] = target: His12 (UniProt position 197, CHQQIHRNAPI); assay: NMR
[3] = 10 °C, not stated for the titration sample (the pH 6.0 zinc-binding NMR samples had no other added buffers or salts), not stated (no added buffer reported for the NMR samples), folded, Zn2+-bound (0.9 mM ZL with equimolar ZnCl2)

ZC4H2 zinc finger peptide ZL (ZC4H2-ZL) (Homo sapiens)
pKa [1, 3]: 6.9 ± 0.1
pKa ([1]; unfolded, zinc-free ZL peptide): near 6.0
pKa [2, 3]: 5.5 ± 0.1
pKa ([2]; unfolded, zinc-free ZL peptide): near 6.0
